Blank lines part the entries; values can stand above or below the molecule they belong to.
Key:
β-glucanase (lichenase) = target: T1, β-glucanase (lichenase) (Bacillus subtilis, UniProt P04957); experiment: Influence of exogenous β-glucan on β-glucanase activity in the ELSA; type: biochemical; conditions: 0.5 mU β-glucanase/well; 22° C., 15 minutes
T1 construct: purchased Megazyme Pty.Ltd. batch MLI 82001
Source text: (§1) Other procedures The method for preparing the arabinoxylan substrate was the same as used for β-glucan except the substrate was arabinoxylan rather than β-glucan. The BNHS to arabinoxylan ratio was 0.2 with the stock substrate being diluted 10,000 fold prior to being coated on the plate. The azo-barley-glucan method for the assay of β-glucanase was according to the procedure described by McCleary and Shameer (1987). The precision of the assay was studied using three concentration of enzyme (0.076, 2.1 and 160 mU)/well. They were added (100 μl) to wells containing the 0.2 biotin-β-glucan diluted 1 to 50,000 and the mixture was incubated for 15 minutes at 22° C. Other procedures were as described above. The assay within the same titer plate was replicated 8 times. The entire assay was replicated 6 times. In the study on the effects that β-glucan had on enzyme activity, β-glucan (5.12 mg/mL) in 20 mM sodium phosphate buffer (pH6.5) was mixed with an equal volume of 0.2 U/mL of β-glucanase and hydrolysed at 40° C. for 60 minutes. The reaction was stopped by putting the enzyme solution in a boiling water bath for 15 minutes. The control sample contained β-glucan but was not incubated with enzyme and was not subjected to boiling. […]

biotinylated α-casein = experiment: Solid phase protease activity assay using biotinylated casein; type: biochemical; conditions: for Hydrolysis of biotin-casein by proteases / Sensitivity (amount of enzyme required to hydrolyse 10% of the biotinylated α-casein): optimal pH of each protease, 37° C., 30 minutes
Description: Preparation of biotinylated casein: 12 mg α-casein in 1 ml of 0.1 M pH 7.2 phosphate-buffer saline [PBS, NaCl, 9.00; Na2HPO4, 1.15; NaH2PO4, 0.23 (g/l)] was allowed to react with 3.6 mg NHS-biotin in 150 ul DMSO for 2 hours at room temperature with gently shaking.
Assay procedure for protease activity using biotinylated casein: The microtitre plates except for the first column of 8 wells were coated using biotinylated α-casein in PBS (0.13 ug/well/100 ul) and incubated for 2 hours at 37° C. The plates were washed three times with 0.1 M PBST (PBS with 0.05% Tween-20). Different concentrations of the enzyme solution as indicated in FIGS. 12-14 (100 ul) were diluted with the appropriate buffer (see Table 2). They were added in triplicate to the wells of a plate followed by incubating in a humid atmosphere at 37° C. for 30 minutes. The plate was washed three times using PBST to terminate the protease reaction. A streptavidin-alkaline phosphatase solution (100 ul/well, 1:1000 dilution in bicarbonate buffer pH 9.5) was added to all wells in the plate except for the first column of 8 wells (as blank) and the plate was incubated at room temperature for 30 minutes. The blank set of wells contained only PBS, no added enzyme and no coating with biotinylated casein. The reaction was stopped by emptying and washing the plate six times with PBST. The pNPP substrate (100 ul/well, 1 mg/ml in 10% diethanolamine buffer pH9.8) was added to each well of the plate followed by incubation at room temperature for about 20 minutes. The absorbency was then read at 405 nm using a microplate reader (Bio-Rad laboratories, Ltd, Mississauga, ON, Canada; model 450). The best sensitivity was obtained when the maximum absorbency was around 2.0 optical density units.

trypsin (EC 3.4.21.4) = experiment: BEISA: competition of inhibitors or other substances for biotinylated trypsin against coated ovomucoid; type: binding
Description: Methods: NHS-biotin solution (5.5 mg in 200 ul dimethyl sulfoxide) and trypsin solution (15 mg in 1000 ul PBS) were mixed and reacted at room temperature for 3 hours with gently shaking. The unconjugated biotin was removed at 4° C. using minicon-15 concentrator (Amicon. Co.). The final volume was 1000 ul.
The 96-well microtiter plate (Falcon 3911) was coated with trypsin egg white inhibitor (ovomucoid, 4 ug/100 ul/well) at 370° C. overnight. The plate was washed once using PBST {[PBS, NaCl, 9.00; Na2HPO4, 1.15; NaH2PO4, 0.23 (g/l) pH 7.2] plus 0.05% Tween-20} and 200 ul of 5% skim milk was added to each well of the plate followed by incubation at 37° C. for 2 hours. The plate was rinsed twice with PBST and 50 ul of PBS was added to each well of the plate except for those in column one where 100 ul of PBS was added. Unlabelled trypsin (50 ul of 400 ug/ml) was added to the wells of the second column followed by successive double dilutions of trypsin in wells up to and including those in column 11. Biotinylated trypsin in PBS (50 ul of 1:3000 dilution of the stock to yield approximately 2 ug/100 ul/well) was added to each well except those in the first column followed by incubation at 37° C. for 1 hour. The final volume in each well was 100 ul. The blank set of wells with no trypsin (column 1) served as the negative control while the last set of wells (column 12) with biotinylated trypsin but no unlabelled trypsin served as the positive control. The plate was then washed three times with PBST and 100 ul of streptavidin-alkaline phosphatase (1:1000 in 50 mM bicarbonate buffer, pH 9.5) was added to each well of the plate and the plate was incubated at room temperature for 30 minutes. The plate was washed five times using PBST and 100 ul/well of p-nitrophenyl phosphate substrate (1 mg/ml in 10% diethanolamine buffer, pH 9.8) was added to the plate followed by incubation at ambient temperature for about 30 minutes. The absorbency was then read at 405 nm using a microplate reader (Bio-Rad laboratories Inc. Mississauga, ON, Canada, model 450). […]

[1] = ELSA: hydrolysis of plate-bound biotinylated β-glucan by enzymes; type: biochemical; conditions: for Relative activity compared to lichenase (mean ± SD, n = 12): enzymes diluted to 5 U/mL per manufacturer values, 0.2 biotin-glucan diluted 1 to 50,000, hydrolysis 15 min, 22° C.
Description: Preparation of biotin-glucan conjugates. The technique is based on the principle that active aldehyde groups which is generated after sodium periodate oxidation of the hydroxyl group of the polysaccharide moiety, reacts with ethylenediamine to form an aminated polysaccharide. The Schiff bases that are formed are stabilized by reaction with sodium borohydride (Wong, 1991). The amine groups can then be conjugated to biotin using BNHS. In brief, 75 mg β-glucan was dissolved in 2 mL distilled water and 0.1 mL of 100 mM NaIO4 was then added. The reaction was protected from light and mixed for 0.5 hours at room temperature. The reaction mixture was treated with 1 mL ethylenediamine for 2 hours and unreacted reagents were removed by ethanol precipitation. This involved the addition of 8 mL of 95% (V/V) ethanol to the reaction mixture (3 mL), followed by mixing of the sample, centrifugation at 10000 g for 10 minutes at 0° C. and dissolving the pellet in 2 mL of distilled water. The preparations was washed three times. The washed precipitate was then dissolved in 2 mL distilled water, 5 mg of sodium borohydride were added and the reaction was allowed to proceed for 4 hours at 4° C. The washing steps as indicated above were repeated three times. The biotin ester (BNHS, 15 mg or 0.15 mg) was dissolved in 0.2 mL DMSO, the mixture was allowed to react at room temperature for 3 hours followed by three ethanol precipitations as described above. The final precipitate was dissolved in 3 mL distilled water, divided into aliquots and each aliquot of the BNHS-β-glucan complex was store frozen at […] in sealed polypropylene containers. The ratio of BNHS to β-glucan were 0.2 and 0.002 for the complexes that were synthesized from 15 mg or 0.15 mg BNHS and 75 mg β-glucan, respectively.
The microtitre plates were directly coated with 0.1 mL/well of the biotin-glucan complex diluted in 0.05 M carbonate-bicarbonate buffer (pH=9.6), and then left at room temperature for 1 hr and overnight at […] The usual dilutions of the 0.2 and 0.002 stock biotin-glucan complex were 50,000 and 100 fold, respectively. The plates were washed 3 times with PBS-T buffer and the emptied plates were stored in sealed containers at 0° C. for up to several months.
Test procedures. β-Glucanase (lichenase) was diluted with 20 mM sodium phosphate buffer (pH 6.5) to the desired concentration. The enzyme (100 μL) was added to each well in the biotin-glucan coated microtiter plate, the plate was sealed with a low evaporation lid, and the mixture was incubated for the desired period of time (from 1 to 30 minutes) and at the desired temperature (usually 22-24° C.). The reaction was stopped by emptying the plates followed by washing of the wells three times with pH 7.2 PBS-T. Blanks contained the incubation buffer without enzyme. Alkaline phosphatase-streptavidin (100 μg) diluted 1:1000 in pH 7.2 PBS was added to each well and incubated for 30 minutes at room temperature. The plates were washed six times with pH 7.2 PBS-T and dried at ambient temperature for approximately 10 to 20 minutes. Alkaline phosphatase substrate solution was then added to each well (100 μL) and the microtiter plates were incubated at room temperature for 30 minutes, or until absorbency of the well with no enzyme yielded a value of from 1.5 to 2.0 optical density units. The plates were read at 405 nm using a microtiter plate reader (Bio-Rad Laboratories Ltd., Mississauga, ON, Canada, Model 450).
Other procedures The method for preparing the arabinoxylan substrate was the same as used for β-glucan except the substrate was arabinoxylan rather than β-glucan. The BNHS to arabinoxylan ratio was 0.2 with the stock substrate being diluted 10,000 fold prior to being coated on the plate. The azo-barley-glucan method for the assay of β-glucanase was according to the procedure described by McCleary and Shameer (1987). The precision of the assay was studied using three concentration of enzyme (0.076, 2.1 and 160 mU)/well. […]

[2] = ELSA for xylanase using biotin-arabinoxylan complex; type: biochemical
Source text: as §1

[3] = Azo-barley glucan method for β-glucanase; type: biochemical
Source text: as §1

Molecule: β-glucan
Amount of β-glucan in the well above which enzyme activity was reduced (β-glucanase (lichenase)): exceeded 1 μg/well

Molecule: CC(=O)N[C@@H](CC(C)C)C(=O)N[C@@H](CC(C)C)C(=O)N[C@H](C=O)CCCNC(=N)N [leupeptin]
Concentration of inhibitor that could be detected (trypsin (EC 3.4.21.4); ovomucoid-coated plate 4 ug/100 ul/well, biotinylated trypsin about 2 ug/100 ul/well): 0.03 to 1 µg/mL

Molecule: 1,4-β-D-glucan-4-glucanohydrolase [Cellulase]
Relative activity compared to lichenase (mean ± SD, n = 12) [1]: 101 ± 7

Molecule: endo-1,4-β-D xylan xylanohydrolase [Endo-β-xylanase]
Relative activity compared to lichenase (mean ± SD, n = 12) [1]: 2.1 ± 0.1

Molecule: amylopectin 6-glycohydrolase [Pullulanase]
Relative activity compared to lichenase (mean ± SD, n = 12) [1]: 1.8 ± 0.1

B3: 1,4-D glucan glucanohydrolase (protein, UniProt P00690 16-511, looked up)
Pancreatic alpha-amylase: QYAPQTQSGRTSIVHLFEWRWVDIALECERYLGPKGFGGVQVSPPNENIVVTNPSRPWWERYQPVSYKLCTRSGNENEFRDMVTRCNNVGVRIYVDAVINHMCGSGAAAGTGTTCGSYCNPGNREFPAVPYSAWDFNDGKCKTASGGIESYNDPYQVRDCQLVGLLDLALEKDYVRSMIADYLNKLIDIGVAGFRIDASKHMWPGDIKAVLDKLHNLNTNWFPAGSRPFIFQEVIDLGGEAIQSSEYFGNGRVTEFKYGAKLGTVVRKWSGEKMSYLKNWGEGWGFMPSDRALVFVDNHDNQRGHGAGGASILTFWDARLYKVAVGFMLAHPYGFTRVMSSYRWARNFVNGQDVNDWIGPPNNNGVIKEVTINADTTCGNDWVCEHRWRQIRNMVWFRNVVDGQPFANWWANGSNQVAFGRGNRGFIVFNNDDWQLSSTLQTGLPGGTYCDVISGDKVGNSCTGIKVYVSSDGTAQFSISNSAEDPFIAIHAESKL
notes: EC 3.2.1.1 from porcine pancreas (Type 1-A)
Relative activity compared to lichenase (mean ± SD, n = 12) [1]: 4.3 ± 0.2

More lines, main results first:

Sensitivity (amount of enzyme required to hydrolyse 10% of the biotinylated α-casein) (biotinylated α-casein): 641 ng/100 ul/sample
Molecule: pepsin
Hydrolysis of biotin-casein by proteases (biotinylated α-casein): Yes

Interference with the binding of labelled trypsin to trypsin inhibitor (trypsin (EC 3.4.21.4)): did not interfere
Molecule: bovine serum albumin (BSA): other protein tested for interference

Sensitivity (amount of enzyme required to hydrolyse 10% of the biotinylated α-casein) (biotinylated α-casein): 4.4 ng/100 ul/sample
Molecule: elastase
Hydrolysis of biotin-casein by proteases (biotinylated α-casein): Yes

Interference with the binding of labelled trypsin to trypsin inhibitor (trypsin (EC 3.4.21.4)): did not interfere
Molecule: CC(C)C[C@H](NC(=O)N[C@H](C(=O)N[C@@H](CCC(N)=O)C(=O)N[C@@H](C)C=O)[C@@H]1CCNC(=N)N1)C(=O)O [elastatinal]

Detection range for the ELSA [1]: 0.001 to 1 mU/assay
Activity on biotin-arabinoxylan substrate [2]: No activity
Detection range of the azo-barley glucan procedure [3]: 10 to 100 mU/assay
B1: endo-1,3-1,4-β-D-glucan-4-glucanohydrolase (protein, UniProt P04957 29-242, looked up)
Beta-glucanase: QTGGSFFDPFNGYNSGFWQKADGYSNGNMFNCTWRANNVSMTSLGEMRLALTSPAYNKFDCGENRSVQTYGYGLYEVRMKPAKNTGIVSSFFTYTGPTDGTPWDEIDIEFLGKDTTKVQFNYYTNGAGNHEKIVDLGFDAANAYHTYAFDWQPNSIKWYVDGQLKHTATNQIPTTPGKIMMNLWNGTGVDEWLGSYNGVNPLYAHYDWVRYTKK
notes: EC 3.2.1.73 from Bacillus subtilis, Megazyme
Relative activity compared to lichenase (mean ± SD, n = 12) [1]: 100 ± 4

Sensitivity: amount of enzyme required to produce a 10% decrease in maximal absorbency (biotinylated α-casein; 0.5 hour hydrolysis): 700 ng/100 ul
Sensitivity (amount of enzyme required to hydrolyse 10% of the biotinylated α-casein) (biotinylated α-casein): 700 ng/100 ul/sample
B2: papain: cysteine protease, EC 3.4.22.2 (protein, UniProt P00784 134-345, looked up)
Papain: IPEYVDWRQKGAVTPVKNQGSCGSCWAFSAVVTIEGIIKIRTGNLNEYSEQELLDCDRRSYGCNGGYPWSALQLVAQYGIHYRNTYPYEGVQRYCRSREKGPYAAKTDGVRQVQPYNEGALLYSIANQPVSVVLEAAGKDFQLYRGGIFVGPCGNKVDHAVAAVGYGPNYILIKNSWGTGWGENGYIRIKRGTGNSYGVCGLYTSSFYPVKN
Hydrolysis of biotin-casein by proteases (biotinylated α-casein): Yes

Sensitivity (amount of enzyme required to hydrolyse 10% of the biotinylated α-casein) (biotinylated α-casein): 25 ng/100 ul/sample
B4: thermolysin: metaloprotease, EC 3.4.24.27 (protein, UniProt P00800 233-548, looked up)
Thermolysin: ITGTSTVGVGRGVLGDQKNINTTYSTYYYLQDNTRGNGIFTYDAKYRTTLPGSLWADADNQFFASYDAPAVDAHYYAGVTYDYYKNVHNRLSYDGNNAAIRSSVHYSQGYNNAFWNGSQMVYGDGDGQTFIPLSGGIDVVAHELTHAVTDYTAGLIYQNESGAINEAISDIFGTLVEFYANKNPDWEIGEDVYTPGISGDSLRSMSDPAKYGDPDHYSKRYTGTQDNGGVHINSGIINKAAYLISQGGTHYGVSVVGIGRDKLGKIFYRALTQYLTPTSNFSQLRAAAVQSATDLYGSTSQEVASVKQAFDAVGVK
Hydrolysis of biotin-casein by proteases (biotinylated α-casein): Yes
